Data from article PMC5647336.

Target: Hp-chimMotB (soluble chimeric variant of Helicobacter pylori MotB with the transmembrane helix replaced by a GCN4-derived leucine zipper) (S. cerevisiae | Helicobacter pylori) (UniProt P03069)
Experiment: SAXS; Hp-chimMotB at 0.05, 0.11 and 0.25 mg/mL in 100 mM sodium acetate pH 4.6, 200 mM NaCl, room temperature; MW from I(0) (Guinier, P(r)) and Porod volume compared with the theoretical dimer mass

Q: For “Hp-chimMotB (soluble chimeric variant of Helicobacter pylori MotB with the transmembrane helix replaced by a GCN4-derived leucine zipper) (from UniProt P03069 249-279; P56427 41-257)”, which stoichiometry N is on record?
A: 2
